According to paper PMC8716928:

Molecular target: Fragment F109–221 of GvpF, split-GFP fusion (Halobacterium salinarum)
Assay: split reporter (BiFC, NanoBiT); split-GFP (mGFP2) in Hfx. volcanii transformants, entire Gvp proteins and fragments (Figure 7); arrangement of the GFP portions not stated; relative fluorescence (rf) of cells against untransformed WR340

relative fluorescence (rf) | Binder
< 4 rf | MAQPDSSGLAEVLDRVLDKGVV [Fragment A1–22 of GvpA, split-GFP fusion]
< 4 rf | GvpA, entire protein, split-GFP fusion (natural protein) MAQPDSSGLAEVLDRVLDKGVVVDVWARVSLVGIEILTVEARVVAASVDTFLHYAEEIAKIEQAELTAGAEAAPEA
